Measurements as given in the supplement of paper PMC9170038.

Tested on: MS2 coat protein
Assay: apparent KD of MS2 coat protein; designed switch direction (-1 OFF switch, 1 ON switch): -1; higher = weaker reporter binding
Outline: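 SNAP-549-labelled MS2 coat protein was titrated, doubling from 0.7 or 1.5 nM to 3 µM, over designed RNA switches transcribed on Illumina chips by stalled E. coli RNA polymerase. Runs were done without input, with 200 uM small-molecule ligand, or with an oligonucleotide input. Apparent KD is the per-design median over clusters of curve-fitted normalised fluorescence.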

[1] = input ligand: microRNA oligo, concentration not stated
[2] = Eterna round: R95, input ligand: microRNA oligo, concentration not stated
[3] = Eterna round: R95, input ligand: FMN 200 uM
[4] = Eterna round: R95, input ligand: none

Sequence	apparent KD of MS2 coat protein (input ligand: FMN 200 uM)	apparent KD of MS2 coat protein (input ligand: none)	apparent KD of MS2 coat protein [2]	also measured
AAUGCCGGUGUCAGGAUAUCCGGAGGGAAACCUCCGGAGAAGGGACAUGAGGAUCACCCAUGUAUGUAACCUGC [AK-MS2ROC-r4-Bmoexclusion4-6] (Eterna round: R97, puzzle: Brourd's mod of Exclusion 4)	24.9 nM	22.2 nM		
UAUAUAUAGUAAGGAUAUGUAUAUACUUUAUAAACAGAAGGUACUGACAUGAGGAUCACCCAUGUUUUAGUGUGGGCAUGUAGA [JMF's solution 57] (Eterna round: R96, puzzle: Exclusion NG 1)				apparent KD of MS2 coat protein [1]: 57.1 nM
GGAAUACAUGAGGAUCACCCAUGUAAGGAUAUGCUGAAUAACACGGAAUAAUCGUGCAGCAGAAGGUACAAAGG [Mat - Mod of my Eli Mod D45] (puzzle: Exclusion 1)			86.3 nM	
ACCAUGGUUGAAGCUAACAUGAGGAUCACCCAUGUAAGCUGCUAGGAUAUGCAGAGGCCCAGAAAGCAGAAGGAGCAGUACUGC [Diatzagequ] (Eterna round: R96, puzzle: Exclusion NG 3)	14.2 nM	14.9 nM		apparent KD of MS2 coat protein [1]: 10.6 nM
GAGGUGUUAGGAUAUCGGAGAUGGAGACCAACGGGAUGAGCCGAGAAGGAACAUGAGGAUCACCCAUGUAGGUG [JR_Exclu4_Sub032] (puzzle: Exclusion 4)			755 nM	apparent KD of MS2 coat protein [3]: 345 nM; apparent KD of MS2 coat protein [4]: 763 nM
CAGUACUGAGGAUAUACAUGAGGAUCACCCAUGUGAGAGUUACUAGUGAGGUCGAUUAGUAGAAGGCAGUACUG [Mat X3R4 m29] (Eterna round: R97, puzzle: Exclusion 3)	215 nM	39.6 nM		
UAGGUGCAAGGAUAUCGCCCGGAAGACAUGAGGAUCACCCAUGUACCGGGUGAGUAUGGGCGAGAAGGUGCAUAUU [Usergete] (puzzle: Exclusion 5)			75.9 nM	apparent KD of MS2 coat protein [3]: 298 nM; apparent KD of MS2 coat protein [4]: 92 nM
CUGAGGUAGCGGUCCUAUGACAUGAGGAUCACCCAUGUACCUUGCUUUGAGCUAAUUGCUCGUCUUAUGAUUCUCGG [Mat - Sensor v3 - turn-off var 1 - JL Mod - D45] (puzzle: Sensor v3, turn-off variant 1)			457 nM	apparent KD of MS2 coat protein [3]: 500 nM; apparent KD of MS2 coat protein [4]: 479 nM
GUUAGUUAAGGAUAUACAGGGAGCCGCGGCGUCUCGCCGCAACAUGAGGAUCACCCAUGUAGAAGGUGGCCAUU [JL ViennaUCT Enbibi mod 2] (puzzle: Exclusion 2)			101 nM	
CAGCUGAAAGUGAGGAUAUCGACUGCCUCGGCAGUCGAGAAGGCACAUGAGGAUCACCCAUGUCUCAACAGCUG [BmEx4/1-A5] (Eterna round: R97, puzzle: Brourd's mod of Exclusion 4)	81.4 nM	23 nM		
ACAAGCUUUUUGCAUGUUAGUUUUGUUGCUUCGUAUGUAACAUGAGGAUCACCCAUGUAAGACUGAUGUCGUCGUUU [JR_SV3TOV2_Sub088] (puzzle: Sensor v3, turn-off variant 2)			47.8 nM	apparent KD of MS2 coat protein [3]: 44.9 nM; apparent KD of MS2 coat protein [4]: 61.6 nM
GCGGUACAUGAGGAUCACCCAUGUCAGGAUAUCCGCUGUUUGUUAAUAAACAAGCGGUGGAGAAGGGACUUCGC [-26.2, -25.5 kcal, 27% A] (Eterna round: R97, puzzle: Exclusion 1)	35.2 nM	31.5 nM		
UCAAUUUUGCGAGGAUAUCGACCAUUCCUCUUUACAUGAGGAUCACCCAUGUACUUAUUCUACAACGAGAAGGCGCUCAUAGUU [JR_ExcNG2_Sub064] (Eterna round: R96, puzzle: Exclusion NG 2)				apparent KD of MS2 coat protein [1]: 30 nM
AAUACGUGAGGAUAUAGAUGAAGGAACUUGAGGAUCACCCAAGUGGCGUCUAGUUCCUGGCUAGAAGGCACAAAUA [Biedbe] (Eterna round: R97, puzzle: Exclusion 5)	263 nM	326 nM		
